The source of these data is article PMC6829862.

In this test the target is mCherry–Gβ1γ9 dimer (UniProt P62873). As to the kind of experiment: FRET or BRET; FLIM-FRET in living transiently transfected HEK 293 cells at 37 °C; donor Citrine in Gα, acceptor mCherry on Gβ1 with the appropriate Gγ; efficiency E = 1 − τda/τd from the short lifetime component τ1 (donor alone 2.7 ± 0.1 ns), analysed only at the plasma membrane; GppNHp added to the culture did not change the signal.

Chain of Citrine–Gαi3 (P08754 whole entry): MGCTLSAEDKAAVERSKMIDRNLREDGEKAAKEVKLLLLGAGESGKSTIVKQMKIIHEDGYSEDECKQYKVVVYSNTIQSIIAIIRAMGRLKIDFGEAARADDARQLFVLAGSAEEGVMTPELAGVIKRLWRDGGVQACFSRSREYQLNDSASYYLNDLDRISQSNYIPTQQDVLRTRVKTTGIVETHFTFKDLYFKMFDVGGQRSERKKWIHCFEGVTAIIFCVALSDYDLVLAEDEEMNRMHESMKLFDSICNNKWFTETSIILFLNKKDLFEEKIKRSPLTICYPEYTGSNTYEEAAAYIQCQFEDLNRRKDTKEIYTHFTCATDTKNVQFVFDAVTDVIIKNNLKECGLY

“Citrine–Gαi3 (from UniProt P08754 1-354) (natural protein)” had an FRET efficiency, lower than that of m3 with m4 by of 5%.
